T1: Human Factor XIIa Protease (human, UniProt P00748 20-615, limits assumed)
T1 construct: also called FXIIa; Human Factor Xlla Protease
T1 sequence (looked up): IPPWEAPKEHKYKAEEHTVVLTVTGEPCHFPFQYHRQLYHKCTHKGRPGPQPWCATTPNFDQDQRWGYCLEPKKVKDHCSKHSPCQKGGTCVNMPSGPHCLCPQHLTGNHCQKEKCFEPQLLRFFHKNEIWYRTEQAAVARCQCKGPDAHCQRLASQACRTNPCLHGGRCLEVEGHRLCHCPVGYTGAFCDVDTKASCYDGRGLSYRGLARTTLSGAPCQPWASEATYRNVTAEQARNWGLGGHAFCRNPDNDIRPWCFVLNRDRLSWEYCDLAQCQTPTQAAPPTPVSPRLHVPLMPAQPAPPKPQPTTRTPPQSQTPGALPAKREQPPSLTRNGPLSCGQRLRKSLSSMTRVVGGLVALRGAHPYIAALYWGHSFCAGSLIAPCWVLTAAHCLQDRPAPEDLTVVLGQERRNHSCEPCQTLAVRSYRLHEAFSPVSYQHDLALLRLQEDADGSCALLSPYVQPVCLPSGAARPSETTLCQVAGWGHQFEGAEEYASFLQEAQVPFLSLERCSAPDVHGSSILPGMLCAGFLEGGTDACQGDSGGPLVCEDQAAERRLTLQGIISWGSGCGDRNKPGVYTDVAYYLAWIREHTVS

T2: Human Factor VII (human, UniProt P08709 61-466)
T2 construct: also called FVII; HCVII-0030
T2 sequence (looked up): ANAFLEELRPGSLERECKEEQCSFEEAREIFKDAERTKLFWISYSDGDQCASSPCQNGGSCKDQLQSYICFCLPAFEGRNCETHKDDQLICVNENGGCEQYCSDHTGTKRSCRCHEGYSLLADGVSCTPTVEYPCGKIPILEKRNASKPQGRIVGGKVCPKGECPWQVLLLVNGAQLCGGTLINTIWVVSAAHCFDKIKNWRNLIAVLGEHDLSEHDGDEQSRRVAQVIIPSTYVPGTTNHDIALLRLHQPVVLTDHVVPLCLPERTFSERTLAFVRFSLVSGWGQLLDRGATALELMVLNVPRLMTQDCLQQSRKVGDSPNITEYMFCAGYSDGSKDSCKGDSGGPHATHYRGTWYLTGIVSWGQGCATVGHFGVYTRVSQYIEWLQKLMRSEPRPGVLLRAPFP

T3: Human Factor VIIa Protease (human, UniProt P08709 61-466)
T3 construct: also called FVIIa; HCVIIA-0031
T3 sequence (looked up): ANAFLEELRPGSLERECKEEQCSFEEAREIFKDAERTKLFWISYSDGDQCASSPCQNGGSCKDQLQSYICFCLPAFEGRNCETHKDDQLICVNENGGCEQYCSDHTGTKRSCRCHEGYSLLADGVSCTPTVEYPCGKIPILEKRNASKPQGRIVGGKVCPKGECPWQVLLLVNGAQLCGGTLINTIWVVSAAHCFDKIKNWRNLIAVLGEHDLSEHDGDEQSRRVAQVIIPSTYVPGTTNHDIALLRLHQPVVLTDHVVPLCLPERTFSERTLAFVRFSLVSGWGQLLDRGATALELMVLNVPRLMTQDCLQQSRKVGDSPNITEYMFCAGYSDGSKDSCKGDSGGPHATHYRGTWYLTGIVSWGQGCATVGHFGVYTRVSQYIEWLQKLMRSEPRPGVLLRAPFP

T4: Human Factor XII (human, UniProt P00748 20-615)
T4 construct: also called FXII; HFXII 1212
T4 sequence (looked up): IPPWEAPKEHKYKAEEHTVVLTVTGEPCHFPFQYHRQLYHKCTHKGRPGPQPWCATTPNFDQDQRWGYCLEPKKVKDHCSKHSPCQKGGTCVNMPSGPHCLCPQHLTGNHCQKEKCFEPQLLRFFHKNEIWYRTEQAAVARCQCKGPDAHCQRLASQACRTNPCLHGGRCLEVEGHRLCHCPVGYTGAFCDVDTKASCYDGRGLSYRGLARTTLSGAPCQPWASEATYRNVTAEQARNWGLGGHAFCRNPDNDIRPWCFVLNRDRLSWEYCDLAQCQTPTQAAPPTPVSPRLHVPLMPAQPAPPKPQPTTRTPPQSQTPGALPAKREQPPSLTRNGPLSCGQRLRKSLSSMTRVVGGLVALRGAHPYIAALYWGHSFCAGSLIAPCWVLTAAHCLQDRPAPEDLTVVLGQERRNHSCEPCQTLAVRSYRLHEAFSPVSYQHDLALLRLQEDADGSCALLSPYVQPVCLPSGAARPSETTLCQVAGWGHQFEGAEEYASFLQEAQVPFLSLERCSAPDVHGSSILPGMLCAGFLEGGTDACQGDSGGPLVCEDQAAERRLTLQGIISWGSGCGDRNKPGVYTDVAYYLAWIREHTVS


Experiments:
[1] = target: T5, rhesus monkey FXI zymogen (rhesus monkey, UniProt F6PJ95 19-624); assay: SPR (ProteOn XPR36), antibody captured by anti-human IgG Fc, FXI as analyte; mean ± SD, N=3
T5 construct: also called Rhesus FXI; NHP FXI
Procedure: (§1) After capture of anti-FXI antibodies, running buffer (1×HBS-N, 5 mM CaCl₂, 0.005% P20, pH 7.4) was injected across all horizontal flow channels (A1-A6) for 5 minutes and allowed to dissociate for 20 minutes at 25 μL/min to remove any non-specifically bound anti-FXI antibodies from the chip surface.
(§2) After capture of anti-FXI antibodies, running buffer was injected across all horizontal flow channels (A1-A6) for 5 minutes and allowed to dissociate for 20 minutes at 25 L/minutes to remove non-specifically bound anti-FXI antibodies from the chip surface.

[2] = target: T6, cynomolgus monkey FXI zymogen (cynomolgus monkey, UniProt A0A2K5VVW4 19-624); assay: as above
T6 construct: also called cyno FXI; NHP FXI
Procedure: as §1, §2

[3] = target: T7, human coagulation Factor XI (FXI) zymogen (human, UniProt P03951 19-625); assay: as above
T7 construct: Homodimeric zymogen; plasma-derived (Haematologic Technologies, HCXI-0150); also called human FXI; Human Factor XI
Procedure: as §1, §2

[4] = target: T7, human coagulation Factor XI (FXI) …; assay: cell-based or functional assay
[5] = target: T7, human coagulation Factor XI (FXI) …; assay: cell-based or functional assay; remark: listed apart in the source
human FXIa [6] = target: T8, human FXIa (human, UniProt P03951 19-625); assay: SPR (ProteOn XPR36), antibody captured by anti-human IgG Fc, FXIa as analyte; mean ± SD, N=3
T8 construct: also called Factor XIa
Procedure: as §1, §2

cynomolgus monkey FXIa = target: T9, cynomolgus monkey FXIa (cynomolgus monkey, UniProt A0A2K5VVW4 19-624); assay: as above
T9 construct: also called NHP FXIa
Procedure: as §1, §2

rhesus monkey FXIa = target: T10, rhesus monkey FXIa (rhesus monkey, UniProt F6PJ95 19-624); assay: as above
T10 construct: also called NHP FXIa
Procedure: as §1, §2

[7] = target: T11, Human Factor IXa Protease (human, UniProt P00740 47-191; P00740 227-461); assay: SPR (Biacore T200), mAb captured on anti-human IgG (Fc) chip, single analyte concentration;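 further: Anti-FXI mAbs captured about 500 RU, anti-RSV mAb as reference, coagulation cascade proteins injected at 500 nM (FXI 5 nM), 25 °C, HBS-EP+ pH 7.4, 1:1 fit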
T11 construct: also called FIXa; HFIXa 1080
Procedure: (§3) Anti-FXI mAbs were captured on a CM5 sensor chip immobilized with anti-human IgG (Fc) capture kit (GE Healthcare) at approximately 500 RU to minimize potential background from co-purifying Igs in plasma derived proteins. Negative control antibody, anti-respiratory syncytial virus (RSV) monoclonal antibody (mAb), was used as a reference and to help reduce background binding of plasma-derived proteins. Binding kinetics was measured using an analyte concentration of FXI at 5 nM; all other coagulation cascade proteins were used at an analyte concentration of 500 nM. Single concentration injections (n=2) were run at 30 μL/min, 25° C., HBS-EP+, pH 7.4.
(§4) Biacore T200 evaluation software was used to fit data to a 1:1 binding model to determine the association rate constant, kₐ (M⁻¹ s⁻¹, where “M” equals molar and “s” equals seconds) and the dissociation rate constant, kd (s⁻¹). These rate constants were used to calculate the equilibrium dissociation constant, KD (M).

Human Factor Xa Protease = target: T12, Human Factor Xa Protease (human, UniProt P00742 41-179; P00742 235-488, limits assumed); assay: as above
T12 construct: also called FXa; HFXa 1011
Procedure: as §3, §4

[8] = target: T13, Human plasma preKallikrein (human, UniProt P03952 20-638); assay: as above
T13 construct: also called HPK 1302
Procedure: as §3, §4

[9] = target: Human Factor II (α-thrombin) (human, UniProt P00734 328-622); assay: as above
Procedure: as §3, §4

Human plasma Kallikrein = target: T14, Human plasma Kallikrein (human, UniProt P03952 20-638); assay: as above
T14 construct: also called HPKa 1303
Procedure: as §3, §4

[10] = target: T1, Human Factor XIIa Protease; assay: as above
Procedure: as §3, §4

Human Factor X = target: T15, Human Factor X (human, UniProt P00742 41-488); assay: as above
T15 construct: also called FX; HFX1010
Procedure: as §3, §4

Human Factor VII = target: T2, Human Factor VII; assay: as above
Procedure: as §3, §4

[11] = target: T16, Human Factor II (Prothrombin) (human, UniProt P00734 44-622); assay: as above
T16 construct: also called FII; lot 41AHG
Procedure: as §3, §4

[12] = target: T17, Cynomolgus monkey plasma Kallikrein (cynomolgus monkey, UniProt A0A2K5VTJ9 20-638); assay: as above
T17 construct: Recombinant, Merck Sharp & Dohme; also called NHP plasma kallikrein; lot 65AJE; not shown: C-terminal His tag

[13] = target: T18, Rhesus monkey plasma Kallikrein (rhesus monkey, UniProt A0A1D5Q7U7 20-638); assay: as above
T18 construct: Recombinant, Merck Sharp & Dohme; also called NHP plasma kallikrein; lot 00AJF; not shown: C-terminal His tag

[14] = target: T3, Human Factor VIIa Protease; assay: as above
Procedure: as §3, §4

Human Factor XII = target: T4, Human Factor XII; assay: as above
Procedure: as §3, §4

Human Factor IX = target: T19, Human Factor IX (human, UniProt P00740 47-461); assay: as above
T19 construct: also called FIX; FIX zymogen
Procedure: as §3, §4

human FXIa [15] = target: T8, human FXIa; assay: cell-based or functional assay

T5 sequence (F6PJ95 entry or part of it): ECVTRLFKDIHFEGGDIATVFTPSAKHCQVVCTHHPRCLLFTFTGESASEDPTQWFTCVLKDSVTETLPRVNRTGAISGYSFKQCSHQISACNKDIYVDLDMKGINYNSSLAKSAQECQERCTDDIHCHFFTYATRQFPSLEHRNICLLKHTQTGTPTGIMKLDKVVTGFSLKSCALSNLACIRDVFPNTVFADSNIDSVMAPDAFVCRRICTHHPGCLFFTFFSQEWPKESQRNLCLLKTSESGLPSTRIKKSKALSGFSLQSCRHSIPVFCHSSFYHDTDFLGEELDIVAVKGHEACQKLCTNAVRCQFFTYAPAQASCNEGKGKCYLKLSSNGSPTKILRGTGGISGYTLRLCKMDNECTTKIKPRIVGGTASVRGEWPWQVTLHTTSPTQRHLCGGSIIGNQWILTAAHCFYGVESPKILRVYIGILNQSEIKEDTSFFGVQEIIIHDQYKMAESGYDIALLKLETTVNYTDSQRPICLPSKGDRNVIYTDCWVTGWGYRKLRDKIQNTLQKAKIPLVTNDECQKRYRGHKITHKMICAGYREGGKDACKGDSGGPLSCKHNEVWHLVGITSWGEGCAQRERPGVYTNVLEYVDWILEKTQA
T10 sequence (F6PJ95 entry or part of it): as above
T14 sequence (P03952 20-638 limits assumed): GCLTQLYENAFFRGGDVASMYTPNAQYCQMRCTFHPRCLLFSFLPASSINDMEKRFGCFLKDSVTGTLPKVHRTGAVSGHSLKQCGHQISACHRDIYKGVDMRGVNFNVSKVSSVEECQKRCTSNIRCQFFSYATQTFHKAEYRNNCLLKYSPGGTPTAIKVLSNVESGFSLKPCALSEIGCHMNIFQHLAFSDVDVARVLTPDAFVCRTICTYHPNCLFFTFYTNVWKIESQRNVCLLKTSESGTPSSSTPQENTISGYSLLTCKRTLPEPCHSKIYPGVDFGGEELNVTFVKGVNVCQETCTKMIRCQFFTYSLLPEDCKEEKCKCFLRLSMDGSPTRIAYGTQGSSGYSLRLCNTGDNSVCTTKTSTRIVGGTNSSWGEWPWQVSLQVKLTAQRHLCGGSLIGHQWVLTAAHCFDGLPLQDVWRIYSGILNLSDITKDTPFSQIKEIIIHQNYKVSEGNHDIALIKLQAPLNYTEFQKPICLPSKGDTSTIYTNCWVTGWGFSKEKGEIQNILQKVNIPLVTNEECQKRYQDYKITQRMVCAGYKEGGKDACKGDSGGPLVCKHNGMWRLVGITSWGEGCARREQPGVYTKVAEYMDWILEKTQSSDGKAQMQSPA
T13 sequence (P03952 20-638 limits assumed): as above
T18 sequence (A0A1D5Q7U7 entry or part of it): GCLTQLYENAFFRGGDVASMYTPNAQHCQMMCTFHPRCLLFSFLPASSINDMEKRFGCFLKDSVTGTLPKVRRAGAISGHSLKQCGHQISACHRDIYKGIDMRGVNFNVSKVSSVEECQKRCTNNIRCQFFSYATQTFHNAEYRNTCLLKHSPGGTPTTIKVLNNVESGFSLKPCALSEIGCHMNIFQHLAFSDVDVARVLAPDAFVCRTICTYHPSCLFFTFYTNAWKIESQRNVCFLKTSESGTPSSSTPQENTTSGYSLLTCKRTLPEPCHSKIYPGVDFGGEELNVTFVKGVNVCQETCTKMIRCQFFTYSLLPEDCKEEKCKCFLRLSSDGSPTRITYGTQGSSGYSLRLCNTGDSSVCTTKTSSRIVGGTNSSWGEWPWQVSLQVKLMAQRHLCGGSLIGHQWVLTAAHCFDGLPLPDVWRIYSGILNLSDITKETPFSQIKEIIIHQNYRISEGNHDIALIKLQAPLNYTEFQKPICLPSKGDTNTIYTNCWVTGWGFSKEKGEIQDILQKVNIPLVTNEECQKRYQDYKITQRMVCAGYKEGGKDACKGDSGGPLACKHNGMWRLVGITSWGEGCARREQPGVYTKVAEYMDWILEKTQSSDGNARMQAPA
T6 sequence (A0A2K5VVW4 entry or part of it): as the sequence (F6PJ95 entry or part of it) above, with D101N, K113E, I126V, V191A counted along it
T9 sequence (A0A2K5VVW4 entry or part of it): as the sequence (F6PJ95 entry or part of it) above, with D101N, K113E, I126V, V191A counted along it
T17 sequence (A0A2K5VTJ9 entry or part of it): as the sequence (A0A1D5Q7U7 entry or part of it) above, with N24T counted along it

Kd [1] | Kd [2] | Kd [3] | FXIIa Activation + HK Inhibition (IC50, nM) [4] | FXIIa Activation no HK Inhibition (IC50, nM) [4] | FXI Autoactivation IC50 nM (on dextran sulfate) [5] | Kd (human FXIa [6]) | Kd (cynomolgus monkey FXIa) | Kd (rhesus monkey FXIa) | binding result [7] | binding result (Human Factor Xa Protease) | binding result [8] | binding result [9] | binding result (Human plasma Kallikrein) | binding result [10] | binding result (Human Factor X) | binding result (Human Factor VII) | binding result [11] | binding result [13] | binding result [14] | Binder | other results
0.0529 nM | 0.18 nM | 0.1 nM | 7.6 nM | 34 nM | 3.3 nM | 0.0554 nM | 0.0892 nM | 0.175 nM | no binding (tested: 500 nM) | no binding (tested: 500 nM) | no binding (tested: 500 nM) | no binding (tested: 500 nM) | no binding (tested: 500 nM) | no binding (tested: 500 nM) | no binding (tested: 500 nM) | no binding (tested: 500 nM) | no binding (tested: 500 nM) | no binding (tested: 500 nM) | no binding (tested: 500 nM) | αFXI-18611 IgG4 HC (S228P)(E1)(L105)/LC Kappa (antibody, V domains shown, Fully human IgG4 (S228P)/kappa; also called αFXI-18611 mAb) VH: EVQLQESGPGLVKPSETLSLTCAVSGYSISSGYFWGWIRQPPGKGLEWIGSILHSGVTYYNPSLKSRVTISVDTSKNQFSLKLSSVTAADTAVYYCARDRTTVSLIEYFQHWGQGTLVTVSS VL: not shown | binding result [12]: no binding (tested: 500 nM); binding result (Human Factor XII): no binding (tested: 500 nM); binding result (Human Factor IX): no binding (tested: 500 nM); FXIa IC50 nM (native, full-length substrate; activation of FIX to FIXa) (human FXIa [15]): 1 nM; FXIa IC50 nM (tri-peptide substrate) (human FXIa [15]): > 1000 nM
0.0722 nM | 0.013 nM | 0.0226 nM | 6 nM | 14 nM | 5.5 nM | 0.0374 nM | 0.0195 nM | 0.149 nM | no binding (tested: 500 nM) | no binding (tested: 500 nM) | no binding (tested: 500 nM) | no binding (tested: 500 nM) | no binding (tested: 500 nM) | no binding (tested: 500 nM) | no binding (tested: 500 nM) | no binding (tested: 500 nM) | no binding (tested: 500 nM) | no binding (tested: 500 nM) | no binding (tested: 500 nM) | αFXI-18623p IgG4 HC (S228P)(Q1)/LC Kappa (antibody, V domains shown, Fully human IgG4 (S228P)/kappa; also called αFXI-18623p-IgG4 (S228P) (Q1)/LC Kappa) VH: QVQLQESGPGLVKPSQTLSLTCTVSGGSIYSGAYYWSWIRQHPGKGLEWIGSIHYSGLTYYNPSLKSRVTISVDTSKNQFSLKLSSVTAADTAVYYCARDVDDSSGDEHYGMDVWGQGTTVTVSS VL: DIQMTQSPSSVSASVGDRVTITCRASQGIDSWLAWYQQKPGKAPKLLIYAASSLQSGVPSRFSGSGSGTDFTLTISSLQPEDFATYYCQQYHIVPITFGGGTKVEIKR | binding result (Human Factor XII): no binding (tested: 500 nM); binding result (Human Factor IX): no binding (tested: 500 nM); FXIa IC50 nM (native, full-length substrate; activation of FIX to FIXa) (human FXIa [15]): 0.4 nM; FXIa IC50 nM (tri-peptide substrate) (human FXIa [15]): > 1000 nM
